Results on 1 substance are retold here after patent EP2322204A1.

The test concerns the target LRP1 receptor on human astrocytoma 1321N1 cells (human) (UniProt Q07954). Briefly: cell-based or functional assay.
Chain of UniProt Q07954 (Q07954 20-4544): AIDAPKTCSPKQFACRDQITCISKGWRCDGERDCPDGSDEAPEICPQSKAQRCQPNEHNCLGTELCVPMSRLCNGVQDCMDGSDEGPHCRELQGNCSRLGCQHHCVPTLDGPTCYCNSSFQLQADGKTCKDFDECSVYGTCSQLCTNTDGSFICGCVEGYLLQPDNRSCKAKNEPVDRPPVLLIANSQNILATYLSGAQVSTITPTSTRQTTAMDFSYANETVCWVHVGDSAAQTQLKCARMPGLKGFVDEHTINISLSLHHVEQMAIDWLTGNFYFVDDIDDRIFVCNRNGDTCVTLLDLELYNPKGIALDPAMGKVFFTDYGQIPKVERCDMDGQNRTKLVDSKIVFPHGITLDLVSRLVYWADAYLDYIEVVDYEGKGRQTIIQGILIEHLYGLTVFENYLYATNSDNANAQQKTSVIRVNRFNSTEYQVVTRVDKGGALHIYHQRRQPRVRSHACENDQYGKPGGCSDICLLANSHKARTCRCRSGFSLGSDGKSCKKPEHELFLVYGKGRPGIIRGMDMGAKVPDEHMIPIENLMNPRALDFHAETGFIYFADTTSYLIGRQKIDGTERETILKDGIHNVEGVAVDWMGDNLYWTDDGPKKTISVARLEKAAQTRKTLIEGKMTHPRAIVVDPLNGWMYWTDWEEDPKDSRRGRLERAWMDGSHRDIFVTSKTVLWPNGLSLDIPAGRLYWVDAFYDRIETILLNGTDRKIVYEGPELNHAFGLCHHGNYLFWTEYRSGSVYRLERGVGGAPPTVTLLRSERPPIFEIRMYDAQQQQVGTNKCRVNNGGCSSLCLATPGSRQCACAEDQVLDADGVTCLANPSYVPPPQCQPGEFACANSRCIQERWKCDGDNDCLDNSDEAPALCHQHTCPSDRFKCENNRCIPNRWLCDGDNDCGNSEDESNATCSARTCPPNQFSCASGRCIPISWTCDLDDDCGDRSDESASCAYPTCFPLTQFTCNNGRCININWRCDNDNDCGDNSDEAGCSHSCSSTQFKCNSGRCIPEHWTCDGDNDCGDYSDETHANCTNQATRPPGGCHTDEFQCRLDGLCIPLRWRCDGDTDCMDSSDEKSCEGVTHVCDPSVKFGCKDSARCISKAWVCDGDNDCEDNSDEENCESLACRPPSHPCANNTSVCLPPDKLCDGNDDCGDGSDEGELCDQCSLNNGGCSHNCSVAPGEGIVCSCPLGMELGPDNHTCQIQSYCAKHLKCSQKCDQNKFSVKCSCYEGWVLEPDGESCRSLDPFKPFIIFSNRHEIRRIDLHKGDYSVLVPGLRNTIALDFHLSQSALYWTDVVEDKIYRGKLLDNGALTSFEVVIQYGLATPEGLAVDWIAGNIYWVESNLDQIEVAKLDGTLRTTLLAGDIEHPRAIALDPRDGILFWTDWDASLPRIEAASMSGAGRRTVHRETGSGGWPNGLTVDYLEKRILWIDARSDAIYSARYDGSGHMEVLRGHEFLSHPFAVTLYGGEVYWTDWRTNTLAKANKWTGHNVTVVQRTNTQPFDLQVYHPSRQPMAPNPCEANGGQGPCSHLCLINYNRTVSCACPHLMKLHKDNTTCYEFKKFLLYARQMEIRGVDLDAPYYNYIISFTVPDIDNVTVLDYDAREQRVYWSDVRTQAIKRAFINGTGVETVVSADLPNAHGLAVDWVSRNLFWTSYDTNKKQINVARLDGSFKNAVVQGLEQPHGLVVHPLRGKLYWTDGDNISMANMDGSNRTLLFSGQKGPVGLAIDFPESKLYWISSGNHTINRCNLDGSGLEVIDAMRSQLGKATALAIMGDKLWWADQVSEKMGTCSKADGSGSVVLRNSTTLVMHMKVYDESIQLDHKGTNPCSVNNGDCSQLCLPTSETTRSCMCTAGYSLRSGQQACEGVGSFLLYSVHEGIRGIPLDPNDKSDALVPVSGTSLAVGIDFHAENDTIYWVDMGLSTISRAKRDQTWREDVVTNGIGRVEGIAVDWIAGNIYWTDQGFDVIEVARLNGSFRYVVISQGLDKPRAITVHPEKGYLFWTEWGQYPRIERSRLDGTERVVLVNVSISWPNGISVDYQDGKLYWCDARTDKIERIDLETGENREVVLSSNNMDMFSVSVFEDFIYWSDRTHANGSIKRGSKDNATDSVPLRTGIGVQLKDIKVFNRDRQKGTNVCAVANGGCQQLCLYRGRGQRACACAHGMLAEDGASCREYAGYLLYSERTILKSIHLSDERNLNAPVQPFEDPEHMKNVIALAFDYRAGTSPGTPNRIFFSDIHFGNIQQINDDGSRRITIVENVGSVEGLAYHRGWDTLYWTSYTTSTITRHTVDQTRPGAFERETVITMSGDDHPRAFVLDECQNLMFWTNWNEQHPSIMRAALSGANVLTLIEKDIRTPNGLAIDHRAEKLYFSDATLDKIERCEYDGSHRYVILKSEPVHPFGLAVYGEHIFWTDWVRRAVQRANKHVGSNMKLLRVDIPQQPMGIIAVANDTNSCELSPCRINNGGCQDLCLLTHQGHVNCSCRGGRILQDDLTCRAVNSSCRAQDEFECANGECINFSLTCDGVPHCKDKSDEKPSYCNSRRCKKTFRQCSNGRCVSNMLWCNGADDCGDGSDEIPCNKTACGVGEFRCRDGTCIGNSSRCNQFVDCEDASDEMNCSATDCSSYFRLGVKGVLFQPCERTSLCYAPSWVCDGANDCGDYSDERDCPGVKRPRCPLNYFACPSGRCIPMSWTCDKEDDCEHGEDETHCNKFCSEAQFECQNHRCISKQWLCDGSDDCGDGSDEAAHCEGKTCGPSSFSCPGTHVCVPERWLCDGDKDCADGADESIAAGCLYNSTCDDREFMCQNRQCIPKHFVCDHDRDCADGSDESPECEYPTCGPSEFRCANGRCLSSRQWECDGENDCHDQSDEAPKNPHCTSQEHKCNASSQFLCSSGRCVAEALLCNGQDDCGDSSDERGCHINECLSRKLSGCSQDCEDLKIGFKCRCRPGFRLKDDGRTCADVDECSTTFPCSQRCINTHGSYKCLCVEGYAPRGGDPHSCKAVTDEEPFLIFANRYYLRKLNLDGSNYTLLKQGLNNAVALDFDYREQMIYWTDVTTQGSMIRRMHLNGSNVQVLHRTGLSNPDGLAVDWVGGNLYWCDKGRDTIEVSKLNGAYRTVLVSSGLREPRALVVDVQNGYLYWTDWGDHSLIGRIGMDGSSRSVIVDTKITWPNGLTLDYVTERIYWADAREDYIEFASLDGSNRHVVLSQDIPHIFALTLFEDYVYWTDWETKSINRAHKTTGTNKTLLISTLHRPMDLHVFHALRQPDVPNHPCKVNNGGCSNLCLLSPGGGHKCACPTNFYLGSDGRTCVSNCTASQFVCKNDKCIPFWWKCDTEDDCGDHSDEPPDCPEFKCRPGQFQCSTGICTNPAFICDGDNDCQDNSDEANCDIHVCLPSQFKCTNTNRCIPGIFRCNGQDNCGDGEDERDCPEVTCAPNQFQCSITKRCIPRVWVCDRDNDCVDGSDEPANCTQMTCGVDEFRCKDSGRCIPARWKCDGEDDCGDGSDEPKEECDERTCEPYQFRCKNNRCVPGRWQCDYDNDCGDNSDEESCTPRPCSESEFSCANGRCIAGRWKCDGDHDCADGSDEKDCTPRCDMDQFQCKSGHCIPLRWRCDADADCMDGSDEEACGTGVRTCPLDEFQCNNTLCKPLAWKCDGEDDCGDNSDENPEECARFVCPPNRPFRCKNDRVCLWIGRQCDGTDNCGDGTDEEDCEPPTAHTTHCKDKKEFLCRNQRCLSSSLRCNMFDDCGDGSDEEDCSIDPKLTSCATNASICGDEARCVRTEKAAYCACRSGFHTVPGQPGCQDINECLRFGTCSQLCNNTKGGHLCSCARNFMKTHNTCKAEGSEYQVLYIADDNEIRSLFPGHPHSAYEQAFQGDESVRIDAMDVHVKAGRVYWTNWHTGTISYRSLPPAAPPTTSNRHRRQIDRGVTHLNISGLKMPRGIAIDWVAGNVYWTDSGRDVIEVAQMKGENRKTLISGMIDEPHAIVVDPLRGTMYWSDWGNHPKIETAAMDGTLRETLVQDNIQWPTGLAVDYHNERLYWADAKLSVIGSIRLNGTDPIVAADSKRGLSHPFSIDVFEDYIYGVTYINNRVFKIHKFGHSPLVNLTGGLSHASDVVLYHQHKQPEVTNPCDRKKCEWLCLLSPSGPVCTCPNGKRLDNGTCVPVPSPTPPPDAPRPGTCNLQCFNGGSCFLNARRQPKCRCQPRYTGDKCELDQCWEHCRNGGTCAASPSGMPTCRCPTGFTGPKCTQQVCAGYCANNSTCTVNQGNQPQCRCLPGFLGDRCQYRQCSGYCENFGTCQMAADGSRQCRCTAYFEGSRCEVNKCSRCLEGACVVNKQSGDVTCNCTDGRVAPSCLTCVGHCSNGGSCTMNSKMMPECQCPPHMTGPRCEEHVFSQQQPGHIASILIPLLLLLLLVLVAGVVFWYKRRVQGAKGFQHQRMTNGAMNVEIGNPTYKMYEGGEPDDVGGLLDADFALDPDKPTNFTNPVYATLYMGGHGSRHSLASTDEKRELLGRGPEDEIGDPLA

Regarding “methylamine-transformed A2M* (activated alpha-2-macroglobulin) (from UniProt P01023 24-1474) (ligand)”, the decrease in colony formation in soft agar (anchorage-independent growth), 1321N1 cells is above 50%.
